Test results published in paper PMC3569735.

What was measured:
V1–V2 bnAb PG9 (human) = test: SPR
mAb CH59 (human) = test: SPR

Substance: AE.A244 gp120Δ11 (natural protein)
- Kd (V1–V2 bnAb PG9 (human)): 42.1 nM
- Kd (mAb CH59 (human)): 2.2 nM
